Results: publication PMC9059161

Target: RHAU–casp9

**Q.** How did the time to cleave half of casp3 (12 μM) by RHAU–casp9 (150 nM) without TERRA turn out when RHAU–casp9 (enzyme) was run?
**A.** 120 min
